Publication PMC8740593

T1: QHB-DB (QHB/OsWOX5 DNA-binding domain) (Oryza sativa (rice), UniProt Q8W0F1 1-82)
T1 sequence: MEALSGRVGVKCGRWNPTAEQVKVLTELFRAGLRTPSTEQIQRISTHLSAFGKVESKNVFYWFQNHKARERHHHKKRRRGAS

B1: P3 (dsDNA)
DNA 1: GTAGATGGTACCCGCTGCAGTAAGCCTCCATTAAGCTTGAATTGCTGCTCCCTTGGGCGC
DNA 2: GCGCCCAAGGGAGCAGCAATTCAAGCTTAATGGAGGCTTACTGCAGCGGGTACCATCTAC
B2: Positive control (AGAMOUS intron) (dsDNA)
DNA 1: ATGTCTATTGGATTTATACCCAATGTGTTAATGGGTTGTTGACACATGTCACATGTCTGA
DNA 2: TCAGACATGTGACATGTGTCAACAACCCATTAACACATTGGGTATAAATCCAATAGACAT
B3: P1 (dsDNA)
DNA 1: AAAGATAATAAAAATGTTTATTTCGATGCATTAATTAGTTGTTAGAGTCTTTTGTTGTGT
DNA 2: ACACAACAAAAGACTCTAACAACTAATTAATGCATCGAAATAAACATTTTTATTATCTTT
B4: P2 (dsDNA)
DNA 1: TTTTATAATTAATCACTCCTTGCTGCTTAATCACCCAATTAATCACACCTGATCTACCCA
DNA 2: TGGGTAGATCAGGTGTGATTAATTGGGTGATTAAGCAGCAAGGAGTGATTAATTATAAAA
B5: M3 (Core 3 mutated) (dsDNA)
DNA 1: TTTTATAATTAATCACTCCTTGCTGCTTAATCACCCAACCGGTCACACCTGATCTACCCA
DNA 2: TGGGTAGATCAGGTGTGACCGGTTGGGTGATTAAGCAGCAAGGAGTGATTAATTATAAAA
B6: M1 (Core 1 mutated) (dsDNA)
DNA 1: TTTTATGGCCGGTCACTCCTTGCTGCTTAATCACCCAATTAATCACACCTGATCTACCCA
DNA 2: TGGGTAGATCAGGTGTGATTAATTGGGTGATTAAGCAGCAAGGAGTGACCGGCCATAAAA

target: T1, QHB-DB (QHB/OsWOX5 DNA-binding domain); experiment: EMSA

Does B1 bind?
Result: no binding

Does B2 bind?
Result: binds

Does B3 bind?
Result: no binding

Does B4 bind?
Result: binds

Does B5 bind?
Result: no binding

Does B6 bind?
Result: no binding
